Reference: patent US20140255415A1 (Novartis, published 2014)
Where a chain is given by its changes, count along the chain named.

Tests used:
[1] = molecular target: human LINGO-1 expressed on CHO-K1 cells (CHO-K1-hLINGO-1) (human) (UniProt Q96FE5); assay: apparent KD, FACS saturation binding on CHO-K1-hLINGO-1 cells, IgG4 format
[2] = molecular target: T1, human LINGO-2 expressed on CHO-K1 cells (CHO-K1-hLINGO-2) (human, UniProt Q7L985 26-606); assay: apparent KD, FACS saturation binding on CHO-K1-hLINGO-2 cells, IgG4 format
T1 construct: range 26-606; not shown: 2 amino acid residue linker
T1 sequence (looked up): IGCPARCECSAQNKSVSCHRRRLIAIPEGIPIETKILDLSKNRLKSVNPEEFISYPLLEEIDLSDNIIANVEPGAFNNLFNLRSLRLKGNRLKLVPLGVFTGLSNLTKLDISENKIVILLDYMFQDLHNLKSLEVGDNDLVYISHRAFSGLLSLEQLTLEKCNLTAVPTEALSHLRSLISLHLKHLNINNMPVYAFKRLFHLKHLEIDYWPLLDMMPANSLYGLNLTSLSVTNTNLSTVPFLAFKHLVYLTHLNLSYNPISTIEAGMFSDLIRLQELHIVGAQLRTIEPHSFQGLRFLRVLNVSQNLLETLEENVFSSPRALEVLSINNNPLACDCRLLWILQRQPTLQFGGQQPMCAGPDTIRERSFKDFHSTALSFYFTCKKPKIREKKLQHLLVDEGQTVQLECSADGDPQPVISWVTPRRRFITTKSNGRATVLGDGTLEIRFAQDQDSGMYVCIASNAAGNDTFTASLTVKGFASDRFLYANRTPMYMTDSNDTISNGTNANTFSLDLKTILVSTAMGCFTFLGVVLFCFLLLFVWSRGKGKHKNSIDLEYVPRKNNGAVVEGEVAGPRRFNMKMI

[3] = molecular target: T2, rat LINGO-1 expressed on CHO-K1 cells (CHO-K1-rLINGO-1) (rat, UniProt A0A8I5ZPI2 34-614); assay: apparent KD, FACS saturation binding on CHO-K1-rLINGO-1 cells, IgG4 format
T2 construct: range 34-614; not shown: 2 amino acid residue linker
T2 sequence: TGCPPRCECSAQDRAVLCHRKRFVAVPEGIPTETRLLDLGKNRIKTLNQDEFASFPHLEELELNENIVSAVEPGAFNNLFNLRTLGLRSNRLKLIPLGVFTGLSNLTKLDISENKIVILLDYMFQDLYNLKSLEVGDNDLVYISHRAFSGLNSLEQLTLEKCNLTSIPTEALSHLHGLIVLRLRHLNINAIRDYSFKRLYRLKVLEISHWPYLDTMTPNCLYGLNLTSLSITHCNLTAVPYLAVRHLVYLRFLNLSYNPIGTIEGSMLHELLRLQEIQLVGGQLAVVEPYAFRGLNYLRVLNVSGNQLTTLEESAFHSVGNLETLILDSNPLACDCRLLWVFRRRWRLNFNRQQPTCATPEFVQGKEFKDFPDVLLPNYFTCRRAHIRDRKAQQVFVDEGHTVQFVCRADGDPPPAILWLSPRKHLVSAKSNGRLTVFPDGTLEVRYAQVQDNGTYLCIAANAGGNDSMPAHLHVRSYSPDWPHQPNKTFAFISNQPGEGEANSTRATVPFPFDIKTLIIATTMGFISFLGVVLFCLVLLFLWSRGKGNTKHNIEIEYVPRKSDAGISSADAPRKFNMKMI
Protocol: (§1) Cell based affinity of anti-LINGO-1 specific antibodies is determined by FACS saturation binding experiments. The determination of the apparent KD values is carried out identical to the procedure described above using anti-LINGO-1 Fab antibodies.
(§2) In detail, CHO-K1-hLINGO-1, CHO-K1-cmLINGO-1 or CHO-K1-rLINGO-1 are detached from culture flasks by versene, washed with FACS buffer and resuspended in FACS buffer. Purified anti-LINGO-1 IgG4s are serially diluted in FACS buffer and spread into round bottom 96-well microtiter plates (NUNC™, Wiesbaden, Germany). For each concentration, duplicate wells are incubated with 1.25×10⁴ cells for 30-60 min on ice in a total volume of 100 μl. […] Using this assay the following apparent KD values can be determined (Table 3).

[4] = molecular target: T3, cynomolgus monkey LINGO-1 expressed on CHO-K1 cells (CHO-K1-cmLINGO-1) (cynomolgus monkey, UniProt Q9N008 34-614); assay: apparent KD, FACS saturation binding on CHO-K1-cmLINGO-1 cells, IgG4 format
T3 construct: range 34-614; also called Cynomolgus LINGO-1; not shown: 2 amino acid residue linker
T3 sequence (looked up): T2 sequence with G261S, V286M, A315V, H386R, S494P
Protocol: as §1, §2

[5] = molecular target: human LINGO-1 expressed on CHO-K1 cells (CHO-K1-hLINGO-1) (human) (UniProt Q96FE5); assay: FACS saturation binding on CHO-K1-hLINGO-1 cells, IgG4, with 50% human CSF against control
[6] = molecular target: human LINGO-1 expressed on CHO-K1 cells (CHO-K1-hLINGO-1) (human) (UniProt Q96FE5); assay: apparent KD, FACS saturation binding on CHO-K1-hLINGO-1 cells, IgG4 pre-incubated in FACS buffer
[7] = molecular target: human LINGO-1 expressed on CHO-K1 cells (CHO-K1-hLINGO-1) (human) (UniProt Q96FE5); assay: apparent KD, FACS saturation binding on CHO-K1-hLINGO-1 cells, IgG4, with 50% human cerebro-spinal fluid
[8] = molecular target: human LINGO-1 expressed on CHO-K1 cells (CHO-K1-hLINGO-1) (human) (UniProt Q96FE5); assay: apparent KD, FACS saturation binding on CHO-K1-hLINGO-1 cells, IgG4 pre-incubated in FACS buffer + 2.6% BSA
[9] = molecular target: human LINGO-1 expressed on CHO-K1 cells (CHO-K1-hLINGO-1) (human) (UniProt Q96FE5); assay: ratio of apparent KDs, FACS saturation binding on CHO-K1-hLINGO-1 cells, IgG4, without against with 50% human CSF
[10] = molecular target: human LINGO-1 expressed on CHO-K1 cells (CHO-K1-hLINGO-1) (human) (UniProt Q96FE5); assay: apparent KD, FACS saturation binding on CHO-K1-hLINGO-1 cells, IgG4 pre-incubated in FACS buffer + 50% human serum
[11] = molecular target: human LINGO-1 expressed on CHO-K1 cells (CHO-K1-hLINGO-1) (human) (UniProt Q96FE5); assay: apparent KD, FACS saturation binding on CHO-K1-hLINGO-1 cells, IgG4, without 50% human cerebro-spinal fluid (control)

Kd [1]: 0.29 nM | Kd [2]: 25.9 nM | Kd [3]: 0.98 nM | Kd [4]: 0.62 nM | reduction in affinity [5]: 73% | Kd [6]: 0.28 nM | Kd [7]: 1.57 nM | Kd [8]: 0.19 nM | App. KD ratio w/o CSF:w/ CSF [9]: 0.27 | Kd [10]: 0.27 nM | Kd [11]: 0.43 nM
B1: anti-LINGO-1 IgG4 antibody 4784 (antibody, V domains shown)
VH: QVQLKESGPALVKPTQTLTLTCTFSGFSLSSSGVGVGWIRQPPGKALEWLAHIGSDDDKYYSTSLKTRLTISKDTSKNQVVLTMTNMDPVDTATYYCARNQQYGDGYPGYFDYWGQGTLVTVSS
VL: DIELTQPPSVSVAPGQTARISCSGDNIGNYYVYWYQQKPGQAPVLVIYEDTNRPSGIPERFSGSNSGNTATLTISGTQAEDEADYYCQSYDNLHEQVFGGGTKLTVLG
